Measured values taken from article PMC3712487.

Molecular target: p27^Kip1–His6 (UniProt P46527)
Chain of UniProt P46527 (P46527 whole entry): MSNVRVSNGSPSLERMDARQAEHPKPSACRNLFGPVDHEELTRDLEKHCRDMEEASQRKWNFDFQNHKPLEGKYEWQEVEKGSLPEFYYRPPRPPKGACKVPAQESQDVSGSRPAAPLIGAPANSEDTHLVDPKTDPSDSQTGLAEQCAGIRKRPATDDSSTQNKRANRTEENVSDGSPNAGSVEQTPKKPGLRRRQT

“β1–His6 (full-length β1, wild type) (from UniProt P28072 1-239) (enzyme)” was tested, and the in vitro degradation of purified p27^Kip1–His6 (1 μg) by purified β1–His6 (2 μg) at 37°C, immunoblot, time course up to 90 min was 40%.
